# Experimental data: patent US20250206828A1, “ANTI-ADENOSINE RECEPTOR (A2aR) ANTIBODIES AND THE USE THEREOF” (Adept Therapeutics Inc., priority 2022, published 2025)
# Numbering of substitutions follows the chain as printed.
# B1: 3F8-12E9 (antibody, from another filing, V domains shown)
# VH: QVQLQQPGTELVKPGAPVKLSCKASGFTFTRYWMNWVKQRPGRGLEWIGRIDPSDSETHYNHKFWGKATLTVDKSSSTAYIQLNSLTSEDSAVYYCLRSLYGKGDYWGQGTTLTVSS
# VL: DVLMTQTPLSLSVGLGDQASISCRSSQSIVHSNGNTYLEWYLQRPGQSPKLLIYKVSNRFSGVPDRFSGSGSGTDFTLKISRVEAEDLGVYYCYQGSHVPLTFGSGTKLEIK
# B2: 3F6-9G5 (antibody, from another filing, V domains shown)
# VH: B1 VH with K19R, T28A, R31S, K38R, T58A, N61H, A79V, S85G, Q109H
# VL: B1 VL with G14R, I29L, S32R
# B3: 1B5-3D7 (antibody, from another filing, V domains shown)
# VH: B1 VH with A24T, Y32F, K38R, S54Y, H59Q, G66D, K67R, A79V, N84S, L97G
# VL: B1 VL with T7S, S12P, G14S, D75Y, K79R, V90I, Y94F, K108T, I111L
# Experiments:
# [1] = molecular target: T1, human A2aR-expressing CHO cells (Homo sapiens, UniProt P29274); assay: pH-sensitive dye (Zenon pHrodo iFL RED) based internalization assay; assay type: cell-based; settings: 24 hours
# T1 construct: expressed in transfected cells; host or cells: CHO
# T1 sequence (P29274 whole entry): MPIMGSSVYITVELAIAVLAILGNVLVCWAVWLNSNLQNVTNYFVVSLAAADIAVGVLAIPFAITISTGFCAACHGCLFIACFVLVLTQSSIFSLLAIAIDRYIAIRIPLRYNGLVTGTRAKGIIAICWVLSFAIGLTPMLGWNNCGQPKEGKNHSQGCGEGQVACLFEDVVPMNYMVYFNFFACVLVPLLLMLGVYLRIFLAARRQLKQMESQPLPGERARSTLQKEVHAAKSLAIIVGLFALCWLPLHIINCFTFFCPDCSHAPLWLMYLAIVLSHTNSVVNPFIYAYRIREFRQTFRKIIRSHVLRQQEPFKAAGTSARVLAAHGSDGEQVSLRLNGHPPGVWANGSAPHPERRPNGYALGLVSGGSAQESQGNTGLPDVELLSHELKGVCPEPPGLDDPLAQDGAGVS
# Text: The Invitrogen™ Zenon™ pHrodo™ iFL RED human IgG Labeling Reagents (Cat. Z25612) Z25612) is low-pH sensitive dye and was used to determine the internalizing properties of the exemplary anti-A2aR antibodies following manufacture's instruction. The internalization of antibodies coupled with the Zenon™ pHrodo™ iFL RED human IgG Labeling reagents increase the fluorescence signal at low pH intracellular compartment in a cell, providing a method for visualizing internalization under fluorescent microscopy.
# Twenty-five microliters (25 μL) of 4× working solution of Zenon™ pHrodo™ iFL IgG Labeling Reagent were also prepared in freestyle CHO expression medium and then added to each well of a 96-well plate containing antibodies. The solutions in the 96-well plate were mixed and incubated for 5 minutes at room temperature to allow the labeling complexes to form. Afterwards, fifty microliters (50 μl) of 2×10^6/ml human A2aR-expressing CHO cells were added to each well containing labeled antibodies. Cells were then incubated with the labeling complex for 24 hours under standard cell culture conditions. Cells were analyzed under immunofluorescent microscope (Invitrogen EVOS cell imaging system M5000) to visualize the internalization of antibodies by cells. Internalization of antibody was imaged using EVOS imaging systems (Invitrogen).
# [2] = tested on: human PBMCs (CD4 T, CD8 T, NK cells); assay: Restoration of IFN-γ and IL-2 production of NECA-suppressed T cells and NK cells (intracellular cytokine staining); assay type: cell-based; settings: NECA; test substance 1 μg/ml
# Protocol: (§1) Two hundred thousand (2×10^5) human peripheral blood mononuclear cells (PBMCs) human PBMC in complete IMDM medium were aliquoted into each well in a 96-well plate and the cells in the 96-well plate were pre-incubated with antibodies or small molecule inhibitors at indicated concentration for 90 minutes, followed by addition of T cell activator anti-CD3/28 dynabeads (Gibco, Cat #11132D) at ratio of 1:4 (Beads: PBMC, v/v) and NECA (DiscoverX, Cat #92-1191, final concentration […]). Cells were cultured in an incubator at 37° C., 5% CO2 for 24 hours. Cells were then collected and stimulated with anti-CD3/28 dynabeads in the presence of GolgiPlug™ Protein Transport Inhibitor (BD Biosciences, Cat #555028) according to manufacturer's manual for 4 hours. Thereafter, cells were incubated with human TruStain FcX block (Biolegend, Cat #422302) and True-Stain monocyte blocker (Biolegend, Cat #426103) for 15 minutes according the manufacturer's manual, and cells were then stained with surface markers PE-anti-CD4 (Biolegend, Cat #300550), PerCP-cy5.5-anti-CD8 (Biolegend, Cat #301032), APC/cy7-anti-CD3 (Biolegend, Cat #300426) and PE/cy7-anti-CD56 (Biolegend, Cat #362509), PE/cy7-anti-CD56 (Biolegend, Cat #362509), BV711-anti-CD25 (Biolegend, Cat #302636) and BV605-anti-CD69 (Biolegend, Cat #31938 After wash with FACS buffer, cells were stained with BV421-anti-IFN-γ (BD Bioscience, Cat #562988) and APC anti-IL-2 (BD Bioscience, cat #551383) using intracellular cytokine staining kit (BD Biosciences, cat #555028) following manufacturer's instruction. Stained samples were analyzed on FACSAria III machine. Data were analyzed using Flowjo software.
# [3] = tested on: human PBMCs (CD4 and CD8 T cells); assay: Restoration of CD25 and CD69 activation markers on NECA-suppressed CD4 and CD8 T cells; assay type: cell-based; settings: test substance 1 μg/ml
# Protocol: as §1
# [4] = molecular target: T2, human adenosine A2A receptor (A2aR) (human, UniProt P29274 1-412); assay: cell-based or functional assay
# T2 sequence (P29274 whole entry): as above
# [5] = molecular target: T2, human adenosine A2A receptor (A2aR); assay: flow cytometry titration, HEK293-hA2aR cells, purified antibody
# [6] = molecular target: T2, human adenosine A2A receptor (A2aR); assay: flow cytometry, HEK293-hA2aR cells, supernatant 1 ug/ml, average of quadruplicate
# [7] = molecular target: T2, human adenosine A2A receptor (A2aR); assay: flow cytometry on PBMC, donor human 1
# [8] = molecular target: T2, human adenosine A2A receptor (A2aR); assay: flow cytometry on PBMC, donor human 2
# [9] = molecular target: cynomolgus adenosine A2A receptor (A2aR) (cynomolgus); assay: flow cytometry on PBMC, donor Cynomolgus 1
# [10] = molecular target: cynomolgus adenosine A2A receptor (A2aR) (cynomolgus); assay: flow cytometry on PBMC, donor Cynomolgus 2
# [11] = molecular target: T2, human adenosine A2A receptor (A2aR); assay: flow cytometry, HEK293-hA2aR cells, supernatant 1 ug/ml, average of triplicate
# [12] = molecular target: T2, human adenosine A2A receptor (A2aR); assay: flow cytometry titration, HEK293-hA2aR cells, purified antibody, average of 7 repeats
molecule,measurement,setting,value
Cc1c(C#N)cccc1-c1cc(-c2cn(Cc3cccc(C(C)(C)O)n3)nn2)nc(N)n1 [AB928],"induction of internalization (pHrodo fluorescence microscopy, FIG. 3)",[1],did not induce internalization
same,"% of cells IFNγ+, CD4 T cells",[2],4.07%
same,"% of cells IFNγ+, CD8 T cells",[2],14.4%
same,"% of cells IFNγ+, NK cells",[2],15%
same,"% of cells IL-2+, CD4 T cells",[2],13.1%
same,"% of cells IL-2+, CD8 T cells",[2],3.15%
same,"% of cells CD25+, CD4 T cells",[3],59.7%
same,"% of cells CD25+, CD8 T cells",[3],32.7%
same,"% of cells CD69+, CD4 T cells",[3],57.6%
same,"% of cells CD69+, CD8 T cells",[3],55.3%
B1,"IC50 of blocking activity, cAMP-Glo, 300 nM NECA, HEK293-hA2aR cells, supernatant (average of triplicate)",[4],1000 pM
same,EC50,[5],480 pM
same,MFI,[6],1920 MFI
B2,"IC50 of blocking activity, cAMP-Glo, 300 nM NECA, HEK293-hA2aR cells, supernatant (average of triplicate)",[4],1300 pM
same,"IC50 of blocking activity, cAMP-Glo, 1.25 uM NECA, HEK293-hA2aR cells, purified antibody",[4],530 pM
same,"IC50 of blocking activity, cAMP-Glo, 5 uM Adenosine, HEK293-hA2aR cells, purified antibody",[4],930 pM
same,% of A2aR+ CD4+ T cells,[7],0.67%
same,% of A2aR+ CD8+ T cells,[7],0.06%
same,% of A2aR+ NK cells,[7],1.15%
same,% of A2aR+ NKT cells,[7],0.62%
same,% of A2aR+ CD4+ T cells,[8],0.48%
same,% of A2aR+ CD8+ T cells,[8],0.03%
same,% of A2aR+ NK cells,[8],0.99%
same,% of A2aR+ NKT cells,[8],0.47%
same,% of A2aR+ CD4+ T cells,[9],1.36%
same,% of A2aR+ CD8+ T cells,[9],0.06%
same,% of A2aR+ NK cells,[9],3.34%
same,% of A2aR+ NKT cells,[9],0.85%
same,% of A2aR+ CD4+ T cells,[10],3.26%
same,% of A2aR+ CD8+ T cells,[10],0.14%
same,% of A2aR+ NK cells,[10],2.63%
same,% of A2aR+ NKT cells,[10],1.14%
same,MFI,[11],2040 MFI
same,EC50,[12],710 pM
B3,MFI,[11],1960 MFI
